For orientation: Km means the substrate concentration at which the rate is half of its maximum. As a reminder, the kcat is the number of substrate molecules converted per active site and unit of time at saturation. The kcat/Km is the turnover number divided by the Michaelis constant.

This series deals with CC(C)C=O. Put plainly: isobutyraldehyde reduction kinetics (A340, initial rates). The series is classed as biochemical, Mucor circinelloides. The following applies: other: 30° C., pH 7.0, NADH specific. The text has this: This example describes preparation of ADH-gene constructs for over-expression/purification and measurement of enzyme activities using a time-course assay. Horse-liver ADH (HLADH; A-6128) was purchased from Sigma. Achromobacter xylosoxidans SadB (SadB), Saccharomyces cerevisiae ADH6 (ScADH6) and ADH7 (ScADH7), Entamoeba histolytica ADH1 (EhADH1), Bos Taurus Aldehyde Reductase (BtARD), Beijerinckia indica subsp. Indica ATCC 9039 (BiADH), Clostridium beijerinckii ADH (CbADH), Rana perezi ADH8 (RpADH8), Rattus norvegicus ADH1 (RnADH1), Thermus sp. ATN1 ADH (TADH), Phenylobacterium zucineum HLK1 ADH (PzADH), Methylocella silvestris BL2 ADH (MsADH), Acinetobacter baumannii AYE ADH (AbADH), Geobacillus sp. WCH70 ADH (GbADH), Vanderwaltozyma polyspora DSM 70294 ADH (VpADH), Mucor circinelloides ADH (McADH), and Rhodococcus erythropolis PR4ADH (ReADH) were the candidates for which subclones were prepared for protein expression and purification.
As a routine practice, the crude extracts and purified proteins were assayed for butanol oxidation activity, in order to ensure that the recombinant proteins were active throughout the purification process. […] Alcohol oxidation activities were carried out in 50 mM sodium phosphate buffer at pH 8.8 and aldehyde reduction reactions were assayed in 190 mM potassium phosphate buffer at pH 7.0. […]
Kinetic constants of the ADH enzymes were calculated and compared to identify those candidate ADH enzymes with the most desirable properties for the conversion of isobutyraldehyde to isobutanol in the last step of the engineered pathway for isobutanol production. […] The kcat/KM is derived from the individual numbers of kcat and KM and not an experimentally determined value. […]
Seven additional candidate ADH enzymes were synthesized, expressed, and assayed according to methods such as described in Example 2. […] A comparison of KM, KI, and kcat/KM for each candidate enzyme as compared to the same parameter for SadB are given in Table 9 as a percentage of the values determined (Table 7) for SadB. […]

On to “Mucor circinelloides ADH (McADH), SEQ ID NO: 39 (Mucor circinelloides)”, for which the Michaelis constant (Km) is 30 mM, the kcat is 151 s⁻¹ and the kcat/Km was found to be 5000 M⁻¹ s⁻¹.

Values taken from US8765433B2, “Alcohol dehydrogenases (ADH) useful for fermentive production of lower alkyl alcohols” (priority 2009, dated 2014).
